The target of assay [1] is CelB tetramer (Pyrococcus β-glucosidase CelB, isolated sample imaged by cryo-EM) (Pyrococcus furiosus) (UniProt Q51723). Kind of assay: cryo-EM structure.
Assay [2] deals with bacteriophage P22 coat protein (Salmonella typhimurium bacteriophage P22) (UniProt P26747). As to the kind of experiment: SEC-MALS.
Chain of UniProt P26747 (P26747 whole entry): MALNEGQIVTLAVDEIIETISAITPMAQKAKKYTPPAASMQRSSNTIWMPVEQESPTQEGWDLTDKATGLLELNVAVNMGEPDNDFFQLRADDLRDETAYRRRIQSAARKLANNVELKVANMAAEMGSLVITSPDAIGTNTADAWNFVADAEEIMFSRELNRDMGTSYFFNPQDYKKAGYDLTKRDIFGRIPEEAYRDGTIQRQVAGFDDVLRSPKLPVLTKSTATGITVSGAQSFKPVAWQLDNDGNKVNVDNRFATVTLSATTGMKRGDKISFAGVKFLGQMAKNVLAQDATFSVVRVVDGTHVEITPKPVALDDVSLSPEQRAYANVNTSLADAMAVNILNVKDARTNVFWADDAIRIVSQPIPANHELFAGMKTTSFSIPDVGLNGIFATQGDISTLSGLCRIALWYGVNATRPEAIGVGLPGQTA

In general, stoichiometry N refers to a count of units in the complex or per binding partner. “CelB tetramer (Pyrococcus β-glucosidase CelB, isolated sample imaged by cryo-EM) (from UniProt Q51723 2-472) (enzyme)” showed a stoichiometry N in assay [1] of 4.
The substance “EGFP fused to N-terminal-truncated P22 scaffold protein” showed a #Cargo/capsid in assay [2] of 224 cargo/capsid.

These data come from publication PMC4861311.
